The nature of the data set: Particle size by dynamic light scattering. It counts as physicochemical. As to conditions: Zetasizer Nano ZS, 25 °C.

Consider “dendritic polylysine-1,4,7-triazacyclononane-1,4,7-triacetic acid conjugate [NOTA-DGL]”, for which the “diameter (particle size, DLS)” value was 35.02 ± 1.53 nm.

(Values after paper PMC9054685 (RSC Advances, 2020).)
